# According to patent US12139542B2, “Inhibitors of aortic carboxypeptidase-like protein (ACLP)” (TRUSTEES OF BOSTON UNIVERSITY, priority 2014, dated 2024):
# T1: TGFβ Receptor II (TβRII) (Mus musculus, UniProt Q62312)
# T1 construct: contains the extracellular domain of mouse TβRII fused to the Fc domain of human IgG; purchased R&D
# T1 sequence (Q62312 24-166 limits assumed): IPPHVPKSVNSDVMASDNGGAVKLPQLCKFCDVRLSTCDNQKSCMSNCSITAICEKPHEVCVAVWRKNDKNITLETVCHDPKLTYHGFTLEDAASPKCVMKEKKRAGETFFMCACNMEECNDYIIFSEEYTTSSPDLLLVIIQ
# B1: TβRII Fc: extracellular domain of mouse TβRII fused to the Fc domain of human IgG (R&D); exemplary decoy ACLP inhibitor (protein)
# chain: IPPHVPKSVNSDVMASDNGGAVKLPQLCKFCDVRLSTCDNQKSCMSNCSITAICEKPHEVCVAVWRKNDKNITLETVCHDPKLTYHGFTLEDAASPKCVMKEKKRAGETFFMCACNMEECNDYIIFSEEYTTSSPDLLLVIIQ
# modifications: left off: a dimerising Fc or GST
# B2: Tsp repeat domain: recombinant N-terminal Tsp repeat domain of mouse ACLP, amino acids 26-373, myc-His tagged (protein)
# chain: QTVLTDDEIEEFLEGFLSELETQSPPREDDVEVQPLPEPTQRPRKSKAGGKQRADVEVPPEKNKDKEKKGKKDKGPKATKPLEGSTRPTKKPKEKPPKATKKPKEKPPKATKKPKEKPPKATKKPKEKPPKATKRPSAGKKFSTVAPLETLDRLLPSPSNPSAQELPQKRDTPFPNAWQGQGEETQVEAKQPRPEPEEETEMPTLDYNDQIEKEDYEDFEYIRRQKQPRPTPSRRRLWPERPEEKTEEPEERKEVEPPLKPLLPPDYGDSYVIPNYDDLDYYFPHPPPQKPDVGQEVDEEKEEMKKPKKEGSSPKEDTEDKWTVEKNKDHKGPRKGEELEEEWAPVEK
# modifications: left off: small tags and cut ends
# notes: recombinant N-terminal Tsp repeat domain of mouse ACLP, amino acids 26-373, myc-His tagged
# What was measured:
# ACLP signaling (pSmad3) = assay: TGFβ receptor-Fc decoy block of rACLP-induced pSmad3 in IMR90 fibroblasts; format: cell-based; settings: IMR90 human lung fibroblast cells, 90 mins
# TGFβ Receptor II (TβRII) = target: T1, TGFβ Receptor II (TβRII); assay: ACLP binding assay: biotinylated rACLP on streptavidin plate incubated with TβRII Fc
# Experimental: ACLP binding assays. To determine if ACLP binds to TGFβ Receptor II (TORII), ACLP was biotinylated using an EZ-Link Sulfo-NHS-LC-Biotin kit (Thermo Scientific 21327) according to manufacturer's instructions. Briefly, rACLP (0.267 nM) was incubated with 20 fold molar excess of biotin for 30 min at room temperature. The protein was then dialyzed back into DPBS overnight. Biotinylated ACLP (1 μg/well) was immobilized on a PIERCE™ Streptavidin coated High-Binding Capacity Plate (Thermo-Scientific PI-15500) overnight at 4° C. in binding buffer made up of PBS with Mg^2+, Ca^2+, 0.1% BSA, and 0.05% Tween 20). The next day, the plates were washed with binding buffer, blocked with the same buffer containing 1% BSA at room temperature for 1 h, followed by incubation with increasing amounts of TβRII Fc (0, 10, 100, 1000 ng). Binding was detected with Human-IgG-HRP (GE Healthcare Life Sciences) followed by incubation with 3,3′,5,5′-Tetramethylbenzidine (TMB, eBioscience). The reaction was quenched with 2 M H2SO4 and absorbance at 450 nm was measured on the BioTek Synergy HT system.
# ACLP binds to the TGFβ-receptor II. […] The TβRII Fc chimera contains the extracellular domain of mouse TβRII fused to the Fc domain of human IgG and has been used as a global inhibitor of TGFβ (6).
# [1] = system: ACLP-induced myofibroblast differentiation; assay: TGFβ receptor-Fc decoy block of ACLP-induced SMA and SM-MHC expression in human lung fibroblasts; format: cell-based; settings: human lung fibroblast cells with rACLP, 48 hours
# [2] = system: TGFβ signaling activity (PAI-1 promoter luciferase); assay: MLEC-TGFβ activity assay (PAI-1 promoter luciferase reporter); format: cell-based, mink; settings: MLEC-TGFβ cells, treated overnight in low serum media
# Experimental: Cell Treatments. IMR90 human lung fibroblasts (ATCC) and AD293 cells (Stratagene) were grown in DMEM supplemented with 10% FBS and 1% penicillin/streptomycin and incubated in a 5% CO2 atmosphere at 37° C. Mink lung epithelial cells stably transfected with the plasminogen activator inhibitor 1 (PAI-1) reporter construct driving luciferase expression (MLEC-TGFβ) (2) were grown in DMEM supplemented with 10% FBS and 1% penicillin/streptomycin, maintained in 250 μg/ml G418, and incubated in a 5% CO2 atmosphere at 37° C. IMR90 cells and MLEC-TGFβ cells were generally treated for 30 min, 24 h, or 48 h in low serum media containing 0.5% FBS and 1% penicillin/streptomycin and incubated in a 5% CO2 atmosphere at 37° C. Cells were treated with 3.75 μg/ml (approximately 30 nM) rACLP (full length, Tsp, or C-terminal) or 1 nM TGFβ (R&D) (as a positive control), except where indicated. Cells treated for 30 min were serum starved in low serum media overnight preceding treatment. MLEC-TGFβ activity assay. To measure TGFβ signaling activity, 1×10^4 MLEC-TGFβ cells/well were plated on white 96-well cell culture treated plates and allowed to adhere overnight. […] Luciferase activity was measured on an auto-injecting BioTek Synergy HT plate reader using 50 μl of luciferase assay substrate (Promega).
# [3] = system: Smad3 phosphorylation (canonical TGFβ signaling); assay: Smad3 phosphorylation in serum starved IMR90 fibroblasts (Western blot); format: cell-based, human; settings: serum starved IMR90, ~30 nM protein, 30 min, low serum media
# Experimental: (§1) IMR90 cells and MLEC-TGFβ cells were generally treated for 30 min, 24 h, or 48 h in low serum media containing 0.5% FBS and 1% penicillin/streptomycin and incubated in a 5% CO2 atmosphere at 37° C. Cells were treated with 3.75 μg/ml (approximately 30 nM) rACLP (full length, Tsp, or C-terminal) or 1 nM TGFβ (R&D) (as a positive control), except where indicated. Cells treated for 30 min were serum starved in low serum media overnight preceding treatment.
# rACLP stimulates canonical TGFβ signaling (Published Tumelty et al JBC 2014). Because ACLP increases TGFβ signaling in a reporter assay, the role of ACLP in canonical TGFβ signaling was investigated in detail. In pulmonary fibroblasts, TGFβ promotes the phosphorylation of Smad3 which then binds to Smad4 and translocates into the nucleus to promote transcription of myofibroblast marker genes (4,5). Therefore, the effects of ACLP on Smad3 phosphorylation were measured. Serum starved IMR90 cells were treated with rACLP for 15, 30, 45, or 60 min, or 24 h (FIG. 3) (3).
# Serum starved IMR90 human lung fibroblasts were treated with equivalent molar amounts (˜30 nM) of purified full-length, Tsp repeat domain, or C-terminal protein for 30 min in low serum media (FIG. 6).
# [4] = system: IMR90 human lung fibroblast cells; assay: SMA and collagen I protein expression in IMR90 fibroblasts treated with recombinant ACLP proteins (Western blot); format: cell-based; settings: IMR90, low serum media, 3.75 μg/ml (~30 nM) protein, 48 h, vs control cells
# Experimental: Cell Treatments. IMR90 human lung fibroblasts (ATCC) and AD293 cells (Stratagene) were grown in DMEM supplemented with 10% FBS and 1% penicillin/streptomycin and incubated in a 5% CO2 atmosphere at 37° C. Mink lung epithelial cells stably transfected with the plasminogen activator inhibitor 1 (PAI-1) reporter construct driving luciferase expression (MLEC-TGFβ) (2) were grown in DMEM supplemented with 10% FBS and 1% penicillin/streptomycin, maintained in 250 μg/ml G418, and incubated in a 5% CO2 atmosphere at 37° C.
# as §1
# Recombinant ACLP induces myofibroblast gene and protein expression. To further define the role of ACLP in the fibroblast to myofibroblast differentiation process, IMR90 human lung fibroblast cells were treated with rACLP. […] IMR90 cells were grown in media containing 3.75 μg/ml (30 nM) rACLP or 1 nM TGFβ as a positive control (FIG. 2A). […] These findings indicate that ACLP promotes the fibroblast to myofibroblast differentiation because it stimulates expression of SMA and collagen 1(3).
# The N-terminal domain of ACLP promotes myofibroblast marker protein expression. Because the inventors discovered that the N-terminal Tsp motifs of ACLP (e.g. the PFD) is the domain responsible for promoting TGFβ signaling, the inventors next assessed which domain of ACLP is responsible for increased SMA and collagen I expression in lung myofibroblasts. IMR90 lung fibroblasts were treated in low serum media containing equal molar amounts of full-length protein, the pro-fibrotic domain (PFD) of ACLP, and C-terminal ACLP (˜30 nM) for 48 h (FIG. 7).
Molecule,pSmad3 expression in the presence of mouse rACLP (ACLP signaling (pSmad3)),binding to streptavidin wells without ACLP (TGFβ Receptor II (TβRII); control wells without ACLP),amount that inhibited ACLP binding to TGFβ-RII in vitro (TGFβ Receptor II (TβRII); in vitro),ACLP-induced SM-MHC expression [1],ACLP-induced SMA expression [1],amount that stimulated luciferase activity [2],Smad3 phosphorylation [3],SMA protein expression [4],collagen protein expression [4]
B1,decreases pSmad3 expression,did not bind,at least 100 ng,decreases,decreases,–,–,–,–
B2,–,–,–,–,–,≤ 5 µg/mL,stimulated Smad3 phosphorylation,promoted an increase,promoted an increase
